Measurements as given in paper PMC3887213.

Assays:
Assay in all cases: two-hybrid; quantitative YTH (Q-YTH): chlorophenol-red-β-D-galactopyranoside colour change at 540 nm, background (bait + empty pACT2) subtracted, normalised to wild-type RocCOR = 100%
[1] = biological target: LRRK2 RocCOR tandem domain R1441C (LexA-BD bait) (human) (UniProt Q5S007)
[2] = biological target: LRRK2 RocCOR tandem domain R1441G (LexA-BD bait) (human) (UniProt Q5S007)
[3] = biological target: LRRK2 RocCOR tandem domain R1441H (LexA-BD bait) (human) (UniProt Q5S007)
Sequence of LRRK2 RocCOR tandem domain R1441H (LexA-BD bait) (human) (Q5S007 whole entry R1441H, the tested form may be a part): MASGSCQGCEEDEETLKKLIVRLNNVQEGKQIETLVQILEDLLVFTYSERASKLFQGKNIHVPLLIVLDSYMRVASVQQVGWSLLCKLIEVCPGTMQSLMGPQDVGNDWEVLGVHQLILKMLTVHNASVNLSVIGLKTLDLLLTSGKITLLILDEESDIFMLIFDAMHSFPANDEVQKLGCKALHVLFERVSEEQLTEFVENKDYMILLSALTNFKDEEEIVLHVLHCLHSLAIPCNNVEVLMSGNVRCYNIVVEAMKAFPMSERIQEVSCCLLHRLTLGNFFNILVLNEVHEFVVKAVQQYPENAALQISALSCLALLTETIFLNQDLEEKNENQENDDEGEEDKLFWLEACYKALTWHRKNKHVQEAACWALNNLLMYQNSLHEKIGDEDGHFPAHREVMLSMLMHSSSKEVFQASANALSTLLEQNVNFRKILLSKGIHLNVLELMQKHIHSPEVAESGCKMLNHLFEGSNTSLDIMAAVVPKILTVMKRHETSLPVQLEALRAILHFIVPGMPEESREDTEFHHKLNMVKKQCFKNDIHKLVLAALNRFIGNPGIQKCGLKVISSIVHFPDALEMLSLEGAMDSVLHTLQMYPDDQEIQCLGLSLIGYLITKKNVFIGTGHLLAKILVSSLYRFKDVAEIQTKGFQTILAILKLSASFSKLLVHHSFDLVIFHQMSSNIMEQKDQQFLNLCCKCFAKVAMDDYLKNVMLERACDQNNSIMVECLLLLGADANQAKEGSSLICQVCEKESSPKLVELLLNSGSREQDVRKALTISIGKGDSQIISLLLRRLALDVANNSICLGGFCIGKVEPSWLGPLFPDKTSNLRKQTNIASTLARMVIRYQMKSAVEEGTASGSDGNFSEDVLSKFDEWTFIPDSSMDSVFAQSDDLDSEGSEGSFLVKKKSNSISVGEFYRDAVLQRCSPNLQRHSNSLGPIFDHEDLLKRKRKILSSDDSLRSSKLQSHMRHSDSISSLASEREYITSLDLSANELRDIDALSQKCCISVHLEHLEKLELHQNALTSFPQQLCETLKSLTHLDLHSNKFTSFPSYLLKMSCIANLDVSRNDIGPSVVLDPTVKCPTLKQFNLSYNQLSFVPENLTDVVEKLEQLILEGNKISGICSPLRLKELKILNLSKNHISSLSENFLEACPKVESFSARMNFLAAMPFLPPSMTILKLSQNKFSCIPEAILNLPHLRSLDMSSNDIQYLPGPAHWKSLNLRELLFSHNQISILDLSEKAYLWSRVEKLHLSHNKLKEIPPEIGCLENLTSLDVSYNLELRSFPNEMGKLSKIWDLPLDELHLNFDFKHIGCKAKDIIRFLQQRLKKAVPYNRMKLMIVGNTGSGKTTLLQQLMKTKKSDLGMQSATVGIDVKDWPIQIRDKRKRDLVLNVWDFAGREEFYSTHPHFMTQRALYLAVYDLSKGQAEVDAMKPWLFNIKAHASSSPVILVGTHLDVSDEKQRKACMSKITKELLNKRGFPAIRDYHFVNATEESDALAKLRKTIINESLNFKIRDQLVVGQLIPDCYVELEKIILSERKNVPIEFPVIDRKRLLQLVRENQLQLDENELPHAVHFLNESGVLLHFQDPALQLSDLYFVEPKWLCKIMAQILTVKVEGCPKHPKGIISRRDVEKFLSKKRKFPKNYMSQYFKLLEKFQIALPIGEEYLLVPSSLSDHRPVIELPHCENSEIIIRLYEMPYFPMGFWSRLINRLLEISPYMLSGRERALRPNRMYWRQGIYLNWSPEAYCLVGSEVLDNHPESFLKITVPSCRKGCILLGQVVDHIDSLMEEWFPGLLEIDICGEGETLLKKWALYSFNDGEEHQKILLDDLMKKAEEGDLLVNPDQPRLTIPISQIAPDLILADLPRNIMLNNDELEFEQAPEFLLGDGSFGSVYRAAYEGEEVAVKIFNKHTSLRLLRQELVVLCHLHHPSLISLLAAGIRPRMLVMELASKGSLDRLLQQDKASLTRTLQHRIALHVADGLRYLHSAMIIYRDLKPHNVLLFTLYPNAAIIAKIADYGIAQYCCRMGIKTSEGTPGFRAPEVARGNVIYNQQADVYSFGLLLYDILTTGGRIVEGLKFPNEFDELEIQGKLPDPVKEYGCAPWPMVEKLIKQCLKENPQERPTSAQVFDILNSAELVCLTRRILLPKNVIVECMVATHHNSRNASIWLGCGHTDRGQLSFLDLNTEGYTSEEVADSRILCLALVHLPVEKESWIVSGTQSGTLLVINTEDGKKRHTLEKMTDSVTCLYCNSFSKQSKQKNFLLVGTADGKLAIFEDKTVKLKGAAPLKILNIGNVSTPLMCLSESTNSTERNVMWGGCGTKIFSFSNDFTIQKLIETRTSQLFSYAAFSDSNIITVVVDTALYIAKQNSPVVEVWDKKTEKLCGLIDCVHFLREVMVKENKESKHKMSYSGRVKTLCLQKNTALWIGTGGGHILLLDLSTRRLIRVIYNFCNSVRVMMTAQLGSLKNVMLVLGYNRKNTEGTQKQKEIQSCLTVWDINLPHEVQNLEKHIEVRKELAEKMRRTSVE

Sequence of TUBB4 C terminus (Phe-317 to Ala-444), GAL4-AD prey (P04350 317-444): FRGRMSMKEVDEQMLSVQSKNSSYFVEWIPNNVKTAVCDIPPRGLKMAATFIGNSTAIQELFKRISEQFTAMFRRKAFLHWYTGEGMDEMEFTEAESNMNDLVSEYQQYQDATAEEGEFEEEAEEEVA
Sequence of TUBB C terminus (Phe-317 to the stop codon), GAL4-AD prey (P07437 317-444): as the sequence (P04350 317-444) above, with S16N, S19N, A49V, G117E, F119D, E120F, E121G, A123E, E124A, V127E counted along it
Sequence of LRRK2 RocCOR tandem domain R1441G (LexA-BD bait) (human) (Q5S007 whole entry R1441G, the tested form may be a part): as the sequence (Q5S007 whole entry R1441H, the tested form may be a part) above, with H1441G counted along it
Sequence of LRRK2 RocCOR tandem domain R1441C (LexA-BD bait) (human) (Q5S007 whole entry R1441C, the tested form may be a part): as the sequence (Q5S007 whole entry R1441H, the tested form may be a part) above, with H1441C counted along it

percent increase of the interaction against wild-type RocCOR (Q-YTH) [1] [%] | percent reduction of the interaction against wild-type RocCOR (Q-YTH) [2] [%] | percent reduction of the interaction against wild-type RocCOR (Q-YTH) [3] [%] | Substance
25 | 50 | 25 | TUBB4 C terminus (Phe-317 to Ala-444), GAL4-AD prey (from UniProt P04350 317-444) (domain or fragment)
25 | 50 | 25 | TUBB C terminus (Phe-317 to the stop codon), GAL4-AD prey (from UniProt P07437 317-444) (domain or fragment)
